Experimental data taken from paper PMC2709985 (Biochemistry, 2009).

Experiments:
Sfp [1] = target: T1, Sfp (Bacillus subtilis, UniProt P39135); test: tritium incorporation into apo MBP-PhsA-His6; format: biochemical; conditions: acceptor apo MBP-PhsA-His6; labelled compound
T1 sequence (P39135 1-224): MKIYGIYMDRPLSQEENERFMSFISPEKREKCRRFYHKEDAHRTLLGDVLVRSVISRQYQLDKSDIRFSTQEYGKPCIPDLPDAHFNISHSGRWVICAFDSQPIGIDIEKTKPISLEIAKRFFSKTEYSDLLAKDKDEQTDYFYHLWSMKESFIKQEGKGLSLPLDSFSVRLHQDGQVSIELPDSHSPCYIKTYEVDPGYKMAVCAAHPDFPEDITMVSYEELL

Sfp [2] = target: T1, Sfp; test: fluorescent labelling of apo MBP-PhsA-His6, SDS-PAGE; format: biochemical; conditions: acceptor apo MBP-PhsA-His6; labelled compound
ATP-PPi exchange assay [3] = substrate: CC(=O)N[C@@H](CCC(=O)O)C(=O)O; test: ATP-PPi exchange assay; format: biochemical, Streptomyces viridochromogenes; conditions: holo form (phosphopantetheinylated by Sfp), apparent constant
ATP-PPi exchange assay [4] = substrate: CC(=O)N[C@@H](CC[PH](=O)O)C(=O)O; test: ATP-PPi exchange assay; format: biochemical, Streptomyces viridochromogenes; conditions: holo form (phosphopantetheinylated by Sfp), apparent constant

In the case of `CC(=O)SCCNC(=O)CCNC(=O)[C@H](O)C(C)(C)COP(=O)(O)OP(=O)(O)OC[C@H]1O[C@@H](n2cnc3c(N)ncnc32)[C@H](O)[C@@H]1OP(=O)(O)O` [[^3H]acetyl-CoA], the “tritium incorporation into apo MBP-PhsA-His6” value (Sfp [1]) is reported as “[^3H]acetyl-CoA was utilized as a cosubstrate, resulting in a time-dependent increase”.

With `CC1=CC(C)=[N+]2C1=Cc1ccc(CCC(=O)NCCN3C(=O)CC(SCCNC(=O)CCNC(=O)[C@H](O)C(C)(C)COP(=O)(O)OP(=O)(O)OC[C@H]4O[C@@H](n5cnc6c(N)ncnc65)[C@H](O)[C@@H]4OP(=O)(O)O)C3=O)n1[B-]2(F)F` (some centres unmarked) [BODIPY-FL-N-(2-aminoethyl)maleimidyl-S-CoA] the “fluorescent labelling of apo MBP-PhsA-His6, SDS-PAGE” value (Sfp [2]) was “CoA analogue BODIPY-FL-N-(2-aminoethyl)maleimidyl-S-CoA was employed to install a fluorescently labeled phosphopantetheine arm”.

B1: MBP−PhsA−His6 (Streptomyces viridochromogenes) (protein)
chain: MTAATPDTAPDRTGPSPGACPVVAEFARRAQAGPDRPAVVLPEETVDYRELAARADAVARALLDSRGEGSEPVPLMVLHPAWMLAACLGVLKAGKYYVPLNPHHPDARNRDLLARLGAALVVTDGAVPGRLPGRITVLSVGELDVRPGTPGEPGPAVAPDQWAYALYTSGSTGLPKGILQNRADMRQNIDRHAALGIGPEDRVTLINADGFVAAVSNPYMALLNGAALVPYSFQRDGVHDLIDRLDAAGTTVYYSFPSFLRQAAAVSEGRTTDRVRLAYLGGESVHSSDVLAARRLFPAATVAVGLNSTETGLTRLRLIPPGAEVPDPVPVGGPVPGVEVRVEASPGRPAAVGEAGRIVVRSAFLHAAQWTDQGPRPLTEAVPEADSGTACEPAPRDFRTGDRGRLDGTGQLVHLGRVDGMVKVRGYRVETVEVESAVSAVTGVAEAAVVPYETAEHATELAAYVVAKDPDLTDAALRRALSETLPTHLVPSSVLLVPRLPRTRNGKIDRKALPDPASGTSGTAVSRPAPAHTPAPAPGDGPDEARARVLGQVGEIWSDVLGAGPVLPGDDFFSLGGTSISALRVVSRIRKELGVPLRLAVIFETPSLEAVAESVLRELKGT
Work on B1 yielded a Km (ATP-PPi exchange assay [3]) of 493 ± 82 µM, a kcat (ATP-PPi exchange assay [3]) of 0.48 ± 0.025 s⁻¹ and a kcat/Km (ATP-PPi exchange assay [3]) of 973 ± 167 M⁻¹ s⁻¹. It also gave a Km (ATP-PPi exchange assay [4]) of 254 ± 44 µM, a kcat (ATP-PPi exchange assay [4]) of 2.08 ± 0.108 s⁻¹ and a kcat/Km (ATP-PPi exchange assay [4]) of 8170 ± 1500 M⁻¹ s⁻¹.
